# Reference: publication PMC6420155
# T1: dopamine D1 receptor, C-terminally tagged with Renilla luciferase variant 8, P21728
# T1 chain: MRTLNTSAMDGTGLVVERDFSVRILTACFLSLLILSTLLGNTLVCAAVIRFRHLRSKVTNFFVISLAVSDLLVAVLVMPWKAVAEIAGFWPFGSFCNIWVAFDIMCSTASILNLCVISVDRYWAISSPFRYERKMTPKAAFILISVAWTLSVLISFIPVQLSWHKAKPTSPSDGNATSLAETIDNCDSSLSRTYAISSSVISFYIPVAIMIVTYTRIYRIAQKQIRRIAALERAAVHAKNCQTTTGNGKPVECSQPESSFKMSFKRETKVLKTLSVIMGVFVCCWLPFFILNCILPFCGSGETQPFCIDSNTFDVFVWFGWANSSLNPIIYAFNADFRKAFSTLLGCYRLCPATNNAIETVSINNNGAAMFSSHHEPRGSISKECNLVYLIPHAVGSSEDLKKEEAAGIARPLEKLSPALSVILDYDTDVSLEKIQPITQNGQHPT
# T2: M2 muscarinic acetylcholine receptor, C-terminally tagged with Renilla luciferase variant 8, P08172
# T2 chain: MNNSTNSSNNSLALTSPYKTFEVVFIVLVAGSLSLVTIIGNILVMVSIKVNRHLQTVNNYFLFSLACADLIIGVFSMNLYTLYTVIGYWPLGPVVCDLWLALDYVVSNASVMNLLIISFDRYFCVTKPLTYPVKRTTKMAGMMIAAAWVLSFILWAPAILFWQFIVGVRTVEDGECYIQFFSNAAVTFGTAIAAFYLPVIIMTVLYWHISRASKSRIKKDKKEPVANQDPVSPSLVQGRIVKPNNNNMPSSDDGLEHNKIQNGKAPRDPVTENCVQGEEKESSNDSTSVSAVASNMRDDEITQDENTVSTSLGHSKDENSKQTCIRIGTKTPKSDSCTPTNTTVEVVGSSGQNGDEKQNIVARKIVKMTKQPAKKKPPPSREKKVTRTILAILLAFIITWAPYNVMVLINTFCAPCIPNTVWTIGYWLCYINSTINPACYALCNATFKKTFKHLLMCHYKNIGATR
# T3: HA-tagged dopamine D2 receptor, P14416
# T3 chain: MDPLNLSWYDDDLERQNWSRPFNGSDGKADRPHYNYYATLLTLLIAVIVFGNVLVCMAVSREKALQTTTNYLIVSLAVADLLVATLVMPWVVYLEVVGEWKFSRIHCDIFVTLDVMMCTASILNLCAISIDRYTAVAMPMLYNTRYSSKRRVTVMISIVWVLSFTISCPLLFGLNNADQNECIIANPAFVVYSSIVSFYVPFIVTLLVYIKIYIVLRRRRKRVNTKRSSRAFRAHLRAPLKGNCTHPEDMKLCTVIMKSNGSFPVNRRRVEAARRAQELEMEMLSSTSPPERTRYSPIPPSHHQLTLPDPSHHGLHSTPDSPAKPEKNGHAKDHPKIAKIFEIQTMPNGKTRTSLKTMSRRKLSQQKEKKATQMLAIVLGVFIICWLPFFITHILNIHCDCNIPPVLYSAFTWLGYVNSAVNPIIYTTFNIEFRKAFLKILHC
# T4: dopamine D2 receptor (long isoform), C-terminally tagged with Renilla luciferase variant 8, P14416
# T4 chain: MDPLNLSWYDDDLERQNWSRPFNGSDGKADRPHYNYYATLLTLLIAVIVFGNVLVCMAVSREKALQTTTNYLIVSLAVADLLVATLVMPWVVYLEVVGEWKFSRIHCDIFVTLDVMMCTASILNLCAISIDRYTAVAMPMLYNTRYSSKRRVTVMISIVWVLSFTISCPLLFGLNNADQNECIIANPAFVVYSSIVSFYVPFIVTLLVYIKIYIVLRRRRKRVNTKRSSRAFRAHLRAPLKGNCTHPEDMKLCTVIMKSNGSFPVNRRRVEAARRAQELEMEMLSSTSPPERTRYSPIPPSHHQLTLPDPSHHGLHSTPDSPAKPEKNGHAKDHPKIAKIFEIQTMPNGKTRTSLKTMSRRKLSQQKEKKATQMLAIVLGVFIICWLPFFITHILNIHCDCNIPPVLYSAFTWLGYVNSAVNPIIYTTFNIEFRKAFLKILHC
# Columns and labels:
# [1] = target: dopamine D2 receptor (long isoform), C-terminally tagged with Renilla luciferase variant 8 (human) (UniProt P14416); assay: FRET or BRET; in-cell BRET in HEK293 arrestin-2/3 KO cells co-transfected with Venus-arrestin-3 (acceptor) and receptor-RLuc8 (donor); 10 uM agonist (carbachol for M2R, isoproterenol for β2AR, dopamine for D1R, quinpirole for D2R), 5 uM coelenterazine h; net BRET (with minus without agonist), average at 10 and 15 min and time course
# [2] = target: T1, dopamine D1 receptor, C-terminally …; assay: BRET; conditions: chain shown with the change; HEK293 arrestin 2/3 KO cells; agonist-induced minus basal BRET; average at 10 and 15 min; parent: est. 0.032; read off a plot
# [3] = target: T2, M2 muscarinic acetylcholine receptor, …; assay: BRET; conditions: chain shown with the change; HEK293 arrestin 2/3 KO cells; agonist-induced minus basal BRET; average at 10 and 15 min; parent: est. 0.029; read off a plot
# [4] = target: T3, HA-tagged dopamine D2 receptor, P14416; assay: co-immunoprecipitation (quantified immunoblot); conditions: chain shown with the change; HEK293 arrestin 2/3 KO cells; 10 μM quinpirole; non-specific binding (no HA-D2R) subtracted; parent: est. 8.4; read off a plot
# [5] = target: T4, dopamine D2 receptor (long isoform), …; assay: BRET; conditions: chain shown with the change; HEK293 arrestin 2/3 KO cells; agonist-induced minus basal BRET; average at 10 and 15 min; parent: est. 0.023; read off a plot
molecule,measurement,setting,value
Venus-tagged arrestin-3 ΔG65 (on the A87V background) (from UniProt P32120 1-362) (natural protein),reduction of binding (net BRET) against A87V,[1],80%
"Venus-tagged arrestin-3 A87V base mutant, P32120 G65del (protein) MGEKPGTRVFKKSSPNCKLTVYLGKRDFVDHLDKVDPVDGVVLVDPDYLKDRKVFVTLTCAFRYREDLDVLGLSFRKDLFIANYQVFPPTPNPPRPPTRLQERLLRKLGQHAHPFFFTIPQNLPCSVTLQPGPEDTGKACGVDFEIRAFCAKSLEEKSHKRNSVRLVIRKVQFAPEKPGPQPSAETTRHFLMSDRSLHLEASLDKELYYHGEPLNVNVHVTNNSTKTVKKIKVSVRQYADICLFSTAQYKCPVAQVEQDDQVSPSSTFCKVYTITPLLSNNREKRGLALDGKLKHEDTNLASSTIVKEGANKEVLGILVSYRVKVKLVVSRGGDVSVELPFVLMHPKPHDHIALPRPQSAA",response,[2],0.019
same,response,[3],0.019
same,response,[4],2.7
"Venus-tagged arrestin-3 A87V base mutant, P32120 K313A (protein) MGEKPGTRVFKKSSPNCKLTVYLGKRDFVDHLDKVDPVDGVVLVDPDYLKDRKVFVTLTCAFRYGREDLDVLGLSFRKDLFIANYQVFPPTPNPPRPPTRLQERLLRKLGQHAHPFFFTIPQNLPCSVTLQPGPEDTGKACGVDFEIRAFCAKSLEEKSHKRNSVRLVIRKVQFAPEKPGPQPSAETTRHFLMSDRSLHLEASLDKELYYHGEPLNVNVHVTNNSTKTVKKIKVSVRQYADICLFSTAQYKCPVAQVEQDDQVSPSSTFCKVYTITPLLSNNREKRGLALDGKLKHEDTNLASSTIVKEGANAEVLGILVSYRVKVKLVVSRGGDVSVELPFVLMHPKPHDHIALPRPQSAA",response,[5],0.025
same,response,[2],0.033
same,response,[3],0.032
"Venus-tagged arrestin-3 A87V base mutant, P32120 G65P (protein) MGEKPGTRVFKKSSPNCKLTVYLGKRDFVDHLDKVDPVDGVVLVDPDYLKDRKVFVTLTCAFRYPREDLDVLGLSFRKDLFIANYQVFPPTPNPPRPPTRLQERLLRKLGQHAHPFFFTIPQNLPCSVTLQPGPEDTGKACGVDFEIRAFCAKSLEEKSHKRNSVRLVIRKVQFAPEKPGPQPSAETTRHFLMSDRSLHLEASLDKELYYHGEPLNVNVHVTNNSTKTVKKIKVSVRQYADICLFSTAQYKCPVAQVEQDDQVSPSSTFCKVYTITPLLSNNREKRGLALDGKLKHEDTNLASSTIVKEGANKEVLGILVSYRVKVKLVVSRGGDVSVELPFVLMHPKPHDHIALPRPQSAA",response,[5],0.019
same,response,[2],0.033
same,response,[3],0.023
"Venus-tagged arrestin-3 A87V base mutant, P32120 E157A (protein) MGEKPGTRVFKKSSPNCKLTVYLGKRDFVDHLDKVDPVDGVVLVDPDYLKDRKVFVTLTCAFRYGREDLDVLGLSFRKDLFIANYQVFPPTPNPPRPPTRLQERLLRKLGQHAHPFFFTIPQNLPCSVTLQPGPEDTGKACGVDFEIRAFCAKSLEAKSHKRNSVRLVIRKVQFAPEKPGPQPSAETTRHFLMSDRSLHLEASLDKELYYHGEPLNVNVHVTNNSTKTVKKIKVSVRQYADICLFSTAQYKCPVAQVEQDDQVSPSSTFCKVYTITPLLSNNREKRGLALDGKLKHEDTNLASSTIVKEGANKEVLGILVSYRVKVKLVVSRGGDVSVELPFVLMHPKPHDHIALPRPQSAA",response,[5],0.023
same,response,[2],0.042
same,response,[3],0.026
"Venus-tagged arrestin-3 A87V base mutant, P32120 F245A (protein) MGEKPGTRVFKKSSPNCKLTVYLGKRDFVDHLDKVDPVDGVVLVDPDYLKDRKVFVTLTCAFRYGREDLDVLGLSFRKDLFIANYQVFPPTPNPPRPPTRLQERLLRKLGQHAHPFFFTIPQNLPCSVTLQPGPEDTGKACGVDFEIRAFCAKSLEEKSHKRNSVRLVIRKVQFAPEKPGPQPSAETTRHFLMSDRSLHLEASLDKELYYHGEPLNVNVHVTNNSTKTVKKIKVSVRQYADICLASTAQYKCPVAQVEQDDQVSPSSTFCKVYTITPLLSNNREKRGLALDGKLKHEDTNLASSTIVKEGANKEVLGILVSYRVKVKLVVSRGGDVSVELPFVLMHPKPHDHIALPRPQSAA",response,[5],0.027
same,response,[2],0.042
same,response,[3],0.031
